Results reported in EP1992633A1 (HUMAN GENOME SCIENCES, INC., dated 2008).

Columns and labels:
Assay in all cases: method not described (cites Mazzei et al. 1995)
[1] = biological target: T1, TNFR1 (UniProt P19438 30-211, limits assumed)
T1 sequence (looked up): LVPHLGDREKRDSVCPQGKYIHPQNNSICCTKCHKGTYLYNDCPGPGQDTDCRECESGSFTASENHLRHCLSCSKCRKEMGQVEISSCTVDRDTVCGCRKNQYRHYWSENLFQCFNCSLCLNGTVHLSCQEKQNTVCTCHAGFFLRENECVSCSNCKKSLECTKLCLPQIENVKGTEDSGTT

[2] = biological target: T2, DR4 (UniProt O00220 24-239, limits assumed)
T2 sequence (looked up): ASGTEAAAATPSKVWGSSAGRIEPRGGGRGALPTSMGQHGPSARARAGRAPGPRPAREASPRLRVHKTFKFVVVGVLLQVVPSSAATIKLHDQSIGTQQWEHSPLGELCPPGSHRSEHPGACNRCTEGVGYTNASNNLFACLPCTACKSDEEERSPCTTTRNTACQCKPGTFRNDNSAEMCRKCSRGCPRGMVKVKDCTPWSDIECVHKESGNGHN

[3] = biological target: T3, DR3 (UniProt Q93038 25-199, limits assumed)
T3 sequence (looked up): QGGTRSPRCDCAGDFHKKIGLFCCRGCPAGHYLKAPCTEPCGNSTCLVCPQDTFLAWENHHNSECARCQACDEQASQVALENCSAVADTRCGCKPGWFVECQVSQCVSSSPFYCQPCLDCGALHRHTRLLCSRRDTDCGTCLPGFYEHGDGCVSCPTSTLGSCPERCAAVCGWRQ

[4] = biological target: T4, Fas (UniProt P25445 26-173, limits assumed)
T4 sequence (looked up): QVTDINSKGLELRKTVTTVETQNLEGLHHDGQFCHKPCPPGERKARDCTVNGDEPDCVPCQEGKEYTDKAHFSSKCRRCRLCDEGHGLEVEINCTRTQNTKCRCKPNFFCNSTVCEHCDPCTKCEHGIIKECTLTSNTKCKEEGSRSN

[5] = biological target: T5, TNFR2 (UniProt P20333 23-257, limits assumed)
T5 sequence (looked up): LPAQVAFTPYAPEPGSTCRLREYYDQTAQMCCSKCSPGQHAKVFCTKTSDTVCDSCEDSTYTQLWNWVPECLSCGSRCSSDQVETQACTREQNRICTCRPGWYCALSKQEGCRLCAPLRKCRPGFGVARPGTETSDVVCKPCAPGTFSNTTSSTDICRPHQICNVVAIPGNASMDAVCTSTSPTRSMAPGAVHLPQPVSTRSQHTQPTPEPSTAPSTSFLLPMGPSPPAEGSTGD

Measured: binding result

B1: truncated version of VEGI-alpha corresponding to the putative extracellular domain consisting of residues 38-174, expressed in E. coli (ligand)
chain: ALHWEHELGLAFTKNRMNYTNKFLLIPESGDYFIYSQVTFRGMTSECSEIRQAGRPNKPDSITVVITKVTDSYPEPTQLLMGTKSVCEVGSNWFQPIYLGAMFSLQEGDKLMVNVSDISLVDYTKEDKTFFGAFLL
notes: also called VEGI-alpha deletion mutant; the mutant
no binding: all assays above
